Data from patent publication US20230129812A1, “COMPOSITIONS AND METHODS FOR TREATING PULMONARY HYPERTENSION” (Acceleron Pharma Inc., priority 2020, published 2023).
Changes are numbered by the printed parent chain. Names may count otherwise.

T1: ActA (Homo sapiens, UniProt P08476)
T1 sequence (P08476 311-426): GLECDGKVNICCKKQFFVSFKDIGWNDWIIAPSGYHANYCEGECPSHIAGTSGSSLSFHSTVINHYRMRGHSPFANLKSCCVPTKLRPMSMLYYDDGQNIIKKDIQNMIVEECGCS

T2: GDF8 (Homo sapiens, UniProt O14793)
T2 sequence (O14793 267-375): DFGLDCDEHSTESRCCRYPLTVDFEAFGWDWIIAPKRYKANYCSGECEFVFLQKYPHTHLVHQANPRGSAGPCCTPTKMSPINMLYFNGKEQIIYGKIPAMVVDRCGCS

T3: activin A (Homo sapiens, UniProt P08476)
T3 sequence (P08476 311-426): T1 sequence (P08476 311-426)

T4: GDF11 (Homo sapiens, UniProt O95390)
T4 sequence (O95390 299-407): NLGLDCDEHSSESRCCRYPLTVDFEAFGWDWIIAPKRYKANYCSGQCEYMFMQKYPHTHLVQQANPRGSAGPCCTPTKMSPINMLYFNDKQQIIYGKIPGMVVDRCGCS

B1: D80M: soluble ActRIIB-Fc variant, as reported in WO2006/012627 (protein)
chain: SGRGEAETRECIYYNANWELERTNQSGLERCEGEQDKRLHCYASWANSSGTIELVKKGCWLMDFNCYDRQECVATEENPQVYFCCCEGNFCNERFTHLPEA
modifications: left off: a dimerising Fc or GST
B2: WT (64A): soluble ActRIIB-Fc, wild type with 64A, as reported in WO2006/012627 (protein)
chain: B1 chain with M62D
modifications: left off: a dimerising Fc or GST
B3: D80N: soluble ActRIIB-Fc variant, as reported in WO2006/012627 (protein)
chain: B1 chain with M62N
modifications: left off: a dimerising Fc or GST
B4: F82A: soluble ActRIIB-Fc variant, as reported in WO2006/012627 (protein)
chain: B1 chain with M62D, F64A
modifications: left off: a dimerising Fc or GST
B5: ActRIIB(K74A 20-134)-hFc: ActRIIB-Fc variant with K74A substitution, residues 20-134 (protein)
chain: GRGEAETRECIYYNANWELERTNQSGLERCEGEQDKRLHCYASWRNSSGTIELVAKGCWLDDFNCYDRQECVATEENPQVYFCCCEGNFCNERFTHLPEAGGPEVTYEPPPTAPTGGGTHTCPPCPAPELLGGPSVFLFPPKPKDTLMISRTPEVTCVVVDVSHEDPEVKFNWYVDGVEVHNAKTKPREEQYNSTYRVVSVLTVLHQDWLNGKEYKCKVSNKALPVPIEKTISKAKGQPREPQVYTLPPSREEMTKNQVSLTCLVKGFYPSDIAVEWESNGQPENNYKTTPPVLDSDGSFFLYSKLTVDKSRWQQGNVFSCSVMHEALHNHYTQKSLSLSPGK
B6: ActRIIB(P129S, P130R 20-134)-hFc: ActRIIB-Fc variant with P129S and P130R substitutions, residues 20-134 (protein)
chain: B5 chain with A55K, P110S, P111R
B7: A64 20-134: ActRIIB-Fc with alanine at position 64, amino acids 20-134 of SEQ ID NO:1 (protein)
chain: GRGEAETRECIYYNANWELERTNQSGLERCEGEQDKRLHCYASWANSSGTIELVKKGCWLDDFNCYDRQECVATEENPQVYFCCCEGNFCNERFTHLPEAGGPEVTYEPPPTAPT
modifications: Fc fusion partner not cited
B8: R64 L79P 20-134: ActRIIB-Fc variation R64 L79P, amino acids 20-134 of SEQ ID NO:1 (protein)
chain: B7 chain with A45R, L60P
modifications: Fc fusion partner not cited
B9: R64N 20-134: ActRIIB-Fc variation R64N, amino acids 20-134 of SEQ ID NO:1 (protein)
chain: B7 chain with A45N
modifications: Fc fusion partner
B10: R64 L79P K74A 20-134: ActRIIB-Fc variation R64 L79P K74A, amino acids 20-134 of SEQ ID NO:1 (protein)
chain: B7 chain with A45R, K55A, L60P
modifications: Fc fusion partner not cited
B11: R64 P129S P130A 20-134: ActRIIB-Fc variation R64 P129S P130A, amino acids 20-134 of SEQ ID NO:1 (protein)
chain: B5 chain with A55K, P110S, P111A
B12: R64 A24N 20-119: ActRIIB-Fc variation R64 A24N, amino acids 20-119 of SEQ ID NO:1 (protein)
chain: GRGENETRECIYYNANWELERTNQSGLERCEGEQDKRLHCYASWRNSSGTIELVKKGCWLDDFNCYDRQECVATEENPQVYFCCCEGNFCNERFTHLPEA
modifications: Fc fusion partner not cited
B13: R64 A24N K74A 20-119: ActRIIB-Fc variation R64 A24N K74A, amino acids 20-119 of SEQ ID NO:1 (protein)
chain: B12 chain with K55A
modifications: Fc fusion partner not cited
B14: R64 20-129: ActRIIB-Fc R64, amino acids 20-129 of SEQ ID NO:1 (protein)
chain: GRGEAETRECIYYNANWELERTNQSGLERCEGEQDKRLHCYASWRNSSGTIELVKKGCWLDDFNCYDRQECVATEENPQVYFCCCEGNFCNERFTHLPEAGGPEVTYEPP
modifications: Fc fusion partner not cited

Target: T1, ActA
Assay: not given
Design: key to ActA binding relative to WT: *: No observed binding; −−: <⅕ WT binding; −: ~½ WT binding; +: WT; ++: <2x increased binding; +++: ~5x increased binding; ++++: ~10x increased binding; +++++: ~40x increased binding
Conditions: Table 11, reproduced from WO2006/012627; cited from earlier work

Molecule | ActA binding relative to WT
B1 | *
B2 | (+)
B3 | *
B4 | ++ (<2x increased binding)

Target: T2, GDF8
Assay: Biacore assay, ActRIIB-Fc captured with anti-hFc antibody, ligand injected (Example 8)
Assay type: binding
Conditions: GDF8; Table 10
Experimental: (§1) Binding of certain ActRIIB-Fc proteins and ActRIIB variant Fc fusion polypeptides to ligands was tested in a Biacore™ assay.
(§2) The ActRIIB-Fc variants or wild-type protein were captured onto the system using an anti-hFc antibody. Ligands were injected and flowed over the captured receptor proteins.

Koff | Molecule
2.03e-05 s⁻¹ | B5
0.00018 s⁻¹ | B6

Target: T3, activin A
Assay: as above
Assay type: binding
Conditions: Activin A; Table 10
Experimental: as §1, §2

Koff | Molecule
0.000417 s⁻¹ | B6

Target: T3, activin A
Assay: A-204 reporter gene assay, pGL3(CAGA)12 luciferase
Assay type: cell-based
Design: key to Activin Inhibition Activity: +: Poor activity (roughly 1 × 10^−6 KI); ++: Moderate activity (roughly 1 × 10^−7 KI); +++: Good (wild-type) activity (roughly 1 × 10^−8 KI); ++++: Greater than wild-type activity
Conditions: Table 9; cell-based A-204 assay
Description: (§3) An A-204 reporter gene assay was used to evaluate the effects of ActRIIB-Fc proteins and ActRIIB variant Fc fusion polypeptides on signaling by GDF-11 and activin A. Cell line: human rhabdomyosarcoma (derived from muscle). Reporter vector: pGL3(CAGA)12 (described in Dennler et al, 1998, EMBO 17: 3091-3100). The CAGA12 motif is present in TGF-beta responsive genes (e.g., PAI-1 gene), so this vector is of general use for factors signaling through SMADs.
(§4) Day 1: Split A-204 cells into 48-well plate.
(§5) Day 2: A-204 cells transfected with 10 ug pGL3(CAGA)12 or pGL3(CAGA)12(10 ug)+pRLCMV (1 pg) and Fugene.
(§6) Day 3: Add factors (diluted into medium+0.1% BSA). Inhibitors need to be preincubated with factors for 1 hr before adding to cells. Six hrs later, cells were rinsed with PBS and lysed.
(§7) This is followed by a luciferase assay.
(§8) Activity of ActRIIB-Fc proteins and ActRIIB variant Fc fusion polypeptides was tested in a cell-based assay as described above. Some variants were tested in different C-terminal truncation constructs. As discussed above, truncations of five or fifteen amino acids caused reduction in activity. […]

Activin Inhibition Activity | Molecule
+ (Poor activity (roughly 1 × 10^−6 KI)) | B7
+ (Poor activity (roughly 1 × 10^−6 KI)) | B8
+ (Poor activity (roughly 1 × 10^−6 KI)) | B9
+ (Poor activity (roughly 1 × 10^−6 KI)) | B10
++++ | B5
+ (Poor activity (roughly 1 × 10^−6 KI)) | B13

Molecule | Activin Inhibition Activity
B11 | +++ (Good (wild-type) activity (roughly 1 × 10^−8 KI))
B12 | ++ (Moderate activity (roughly 1 × 10^−7 KI))
B14 | +++ (Good (wild-type) activity (roughly 1 × 10^−8 KI))

Target: T4, GDF11
Assay: not given
Design: key: *: No observed binding; −−: <⅕ WT binding; −: ~½ WT binding; +: WT; ++: <2x increased binding; +++: ~5x increased binding; ++++: ~10x increased binding; +++++: ~40x increased binding
Conditions: Table 11, reproduced from WO2006/012627; cited from earlier work

Molecule | GDF11 binding relative to WT
B1 | *
B2 | (+)
B3 | *
B4 | − (~½ WT binding)

Target: T4, GDF11
Assay: A-204 reporter gene assay, pGL3(CAGA)12 luciferase
Assay type: cell-based
Design: key to GDF11 Inhibition Activity: +: Poor activity (roughly 1 × 10^−6 KI); ++: Moderate activity (roughly 1 × 10^−7 KI); +++: Good (wild-type) activity (roughly 1 × 10^−8 KI); ++++: Greater than wild-type activity
Conditions: Table 9; cell-based A-204 assay
Description: as §3, §4, §5, §6, §7, §8

GDF11 Inhibition Activity | Molecule
+ (Poor activity (roughly 1 × 10^−6 KI)) | B7
+ (Poor activity (roughly 1 × 10^−6 KI)) | B8
+ (Poor activity (roughly 1 × 10^−6 KI)) | B9
+ (Poor activity (roughly 1 × 10^−6 KI)) | B10
++++ | B5
+ (Poor activity (roughly 1 × 10^−6 KI)) | B13

Molecule | GDF11 Inhibition Activity
B11 | +++ (Good (wild-type) activity (roughly 1 × 10^−8 KI))
B12 | ++ (Moderate activity (roughly 1 × 10^−7 KI))
B14 | +++ (Good (wild-type) activity (roughly 1 × 10^−8 KI))
